For this assay, the target named is KSS-1::Strep (C. tropicalis). Kind of assay: SEC-MALS. Background: In gel filtration, larger molecules generally elute earlier.

Broadly, the stoichiometry N is a count of units in the complex or per binding partner.

Consider SKR-1 (untagged) (natural protein), for which the stoichiometry N was found to be 1.

These data come from doi:10.1101/2024.09.16.613340.
